Positions count from the first letter of the chain named. In names and notes the source's numbering stands.
B1: UBN1(92–175) E147A (protein)
chain: NDEEKERHKVEALARKFEEKYGGKKRRKDRIQDLIDMGYGYDESDSFIDNSEAYDALVPASLTTKYGGFYINSGTLQFRQASES
B2: UBN1(92–175) Y130A (protein)
chain: B1 chain with Y39A, A56E
B3: UBN1(92–175) M128A (protein)
chain: B1 chain with M37A, A56E
B4: UBN1(92–175) G129A (protein)
chain: B1 chain with G38A, A56E
B5: UBN1(92–175) G131A (protein)
chain: B1 chain with G40A, A56E
B6: UBN1(92–175) D124A (protein)
chain: B1 chain with D33A, A56E
B7: UBN1(92–175) I122A (protein)
chain: B1 chain with I31A, A56E
B8: UBN1(92–175) D127A (protein)
chain: B1 chain with D36A, A56E
B9: UBN1(92–175) A144I (protein)
chain: B1 chain with A53I, A56E
B10: UBN1(92–175) S137A (domain or fragment)
chain: B1 chain with S46A, A56E
B11: UBN1(92–175) Y145A (protein)
chain: B1 chain with Y54A, A56E
B12: UBN1(92–175) E143A (protein)
chain: B1 chain with E52A, A56E
B13: UBN1(92–175) (domain or fragment)
chain: B1 chain with A56E
B14: UBN1(92–175) Q123A (protein)
chain: B1 chain with Q32A, A56E
B15: UBN1(92–175) L125A (protein)
chain: B1 chain with L34A, A56E
B16: UBN1(92–175) L148A (protein)
chain: B1 chain with A56E, L57A
B17: UBN1(92–175) D146A (protein)
chain: B1 chain with D55A, A56E
B18: UBN1(92–175) I126A (protein)
chain: B1 chain with I35A, A56E
B19: UBN1(122–148) peptide (peptide)
peptide: IQDLIDMGYGYDESDSFIDNSEAYDEL
B20: UBN1(92–148) (domain or fragment)
chain: NDEEKERHKVEALARKFEEKYGGKKRRKDRIQDLIDMGYGYDESDSFIDNSEAYDEL
B21: UBN1(122–175) (domain or fragment)
chain: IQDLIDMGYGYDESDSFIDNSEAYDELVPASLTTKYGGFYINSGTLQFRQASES

molecular target: T1, H3.3/H4 (human | X. laevis, UniProt P84243 1-136; P62799 1-103); test: FP

Binder	IC50 [µM]
B1	22.9
B2	14.4
B3	22.6
B4	67.8
B5	19.9
B6	19.6
B7	16.9
B8	21.1
B9	16.3
B10	16.2
B11	16.4
B12	29.3
B13	16.6
B14	13.8
B15	15.1
B16	19.6
B17	23
B18	13.8

molecular target: T1, H3.3/H4; test: FP; remark: another data set of the same source

Binder	IC50 [µM]
B19	46.4

molecular target: T1, H3.3/H4; test: ITC

Binder	Kd [µM]
B20	16.5
B21	14.6

molecular target: T1, H3.3/H4; test: ITC; remark: another data set of the same source

Binder	Kd [µM]
B13	6.9

molecular target: H3.3(G90M)/H4 (human | X. laevis, UniProt P62799 1-103); test: ITC

Binder	Kd [µM]
B19	115
